The target in assay [1] is chicken nesfatin-1 (chicken (Gallus gallus)). The assay can be described thus: AUC; sedimentation velocity, 20 °C, 50,000 rpm, buffer B1 (20 mM Tris-HCl pH 7.5, 150 mM NaCl) with 500 µM ZnCl2; gN1 at 0.7, 1.0, 1.3 mg/ml; c(s) model.
For assay [2] the target is unchanged. Kind of assay: AUC; sedimentation velocity, 20 °C, 50,000 rpm, buffer B1 (20 mM Tris-HCl pH 7.5, 150 mM NaCl) with 50 µM Zn(II); gN1/2 at 0.92, 1.32, 1.85 mg/ml, gN1 (Table S1); c(s) model.
Assay [3] deals with chicken nesfatin-1/2 (nesfatin-1 and nesfatin-2 conjoined in a head-to-tail manner) (chicken (Gallus gallus)). The assay is described as above.

For orientation: stoichiometry N means a count of units in the complex or per binding partner.

In the case of chicken nesfatin-1 (peptide), in assay [1], the relative abundance of the second sedimenting species (2.59 S) at 1.0 mg/ml, 500 µM Zn(II) stood at 51%; the relative abundance of the second sedimenting species (2.60 S) at 0.7 mg/ml, 500 µM Zn(II) turned out to be 44%; the relative abundance of the second sedimenting species (2.63 S) at 1.3 mg/ml, 500 µM Zn(II) worked out at 51%; the stoichiometry N is 2. For the same substance, the relative abundance of the second sedimenting species (2.16 S), 50 µM Zn(II) in assay [2] amounted to 17%.

For “chicken nesfatin-1/2 (nesfatin-1 and nesfatin-2 conjoined in a head-to-tail manner) (domain or fragment)”, in assay [3], the relative abundance of the second sedimenting species (3.43 S) at 1.85 mg/ml, 50 µM Zn(II) was 13%; the relative abundance of the second sedimenting species (3.49 S) at 0.92 mg/ml, 50 µM Zn(II) stood at 13%; the relative abundance of the second sedimenting species (3.64 S) at 1.32 mg/ml, 50 µM Zn(II) was 15%; the stoichiometry N amounted to 2.

Values taken from publication PMC11134965.
